Results: patent publication US20160304622A1 (GENEFRONTIER, published 2016)

Legend:
Assay in all cases: immunoblotting after reducing SDS-PAGE
[1] = molecular target: T1, purified human MMP-1 (Daiichi Fine Chemical) (human, UniProt P03956 20-469, limits assumed)
T1 sequence (looked up): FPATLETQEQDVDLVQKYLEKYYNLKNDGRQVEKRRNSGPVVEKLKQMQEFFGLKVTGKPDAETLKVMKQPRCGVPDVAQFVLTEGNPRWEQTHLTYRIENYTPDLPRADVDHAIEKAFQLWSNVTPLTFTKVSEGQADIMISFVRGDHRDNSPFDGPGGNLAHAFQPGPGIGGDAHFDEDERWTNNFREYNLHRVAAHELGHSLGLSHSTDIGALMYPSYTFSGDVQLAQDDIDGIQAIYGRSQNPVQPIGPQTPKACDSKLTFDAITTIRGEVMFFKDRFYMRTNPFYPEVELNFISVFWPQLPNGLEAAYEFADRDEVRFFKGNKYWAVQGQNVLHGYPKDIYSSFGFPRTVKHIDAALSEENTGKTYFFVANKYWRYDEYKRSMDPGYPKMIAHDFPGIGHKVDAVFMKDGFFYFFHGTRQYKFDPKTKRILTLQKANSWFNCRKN
Text: (§1) Recombinant proteins of human ADAMTS1 (R&D Systems), ADAMTS4, ADAMTS5 (R&D Systems), ADAMTS15 (R&D Systems), ADAM10 (R&D Systems), ADAM12 (Mochida Pharmaceutical Co., Ltd., Tokyo, Japan), ADAM17 (R&D Systems) and MMP-13 (Millipore, Billerica, Mass.) and purified human MMP-1, MMP-2, MMP-3 and MMP-9 (Daiichi Fine Chemical, Co., Ltd., Toyama, Japan) were subjected to sodium dodecyl sulfate-polyacrylamide gel electrophoresis (SDS-PAGE) under reducing conditions, and the samples resolved on the gels were transferred onto polyvinylidene difluoride (PVDF) membranes. […] After washing with phosphate buffered saline containing 0.1% Tween 20, the membranes were reacted with horseradish peroxidase-conjugated secondary antibody against human IgG (Invitrogen, Carlsbad, Calif.) for 1 h at room temperature. A chemiluminescence reagent (Pierce ECL western blotting substrate; Thermo Fisher Scientific, Waltham, Mass.) was used to make the labeled protein bands visible. All the samples were also examined on silver-stained gels, which were prepared by silver stain kit (Cosmo Bio Co., Ltd, […].).

[2] = molecular target: T2, recombinant human ADAMTS1 (R&D Systems) (human, UniProt Q9UHI8 253-967, limits assumed)
T2 sequence (looked up): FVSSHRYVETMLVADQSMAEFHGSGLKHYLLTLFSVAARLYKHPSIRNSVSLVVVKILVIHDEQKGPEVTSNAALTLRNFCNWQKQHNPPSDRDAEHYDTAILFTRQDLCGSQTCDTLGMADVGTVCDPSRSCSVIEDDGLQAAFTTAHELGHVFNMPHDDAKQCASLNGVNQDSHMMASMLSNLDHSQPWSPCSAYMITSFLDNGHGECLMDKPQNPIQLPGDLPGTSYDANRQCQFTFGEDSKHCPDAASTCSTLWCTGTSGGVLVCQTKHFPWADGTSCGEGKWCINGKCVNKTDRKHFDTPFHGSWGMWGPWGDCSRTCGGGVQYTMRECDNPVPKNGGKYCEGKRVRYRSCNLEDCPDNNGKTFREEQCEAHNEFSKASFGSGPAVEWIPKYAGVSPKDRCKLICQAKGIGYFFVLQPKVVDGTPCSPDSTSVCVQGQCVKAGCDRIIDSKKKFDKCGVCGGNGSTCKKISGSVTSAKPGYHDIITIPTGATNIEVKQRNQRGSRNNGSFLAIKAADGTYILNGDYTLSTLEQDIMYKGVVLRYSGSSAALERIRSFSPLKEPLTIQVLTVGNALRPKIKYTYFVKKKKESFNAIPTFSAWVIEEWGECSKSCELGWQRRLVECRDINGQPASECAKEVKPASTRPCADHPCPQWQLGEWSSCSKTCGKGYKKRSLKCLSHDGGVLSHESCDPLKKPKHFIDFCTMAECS
Text: as §1

[3] = molecular target: T3, recombinant human ADAMTS15 (R&D Systems) (human, UniProt Q8TE58 213-950, limits assumed)
T3 sequence (looked up): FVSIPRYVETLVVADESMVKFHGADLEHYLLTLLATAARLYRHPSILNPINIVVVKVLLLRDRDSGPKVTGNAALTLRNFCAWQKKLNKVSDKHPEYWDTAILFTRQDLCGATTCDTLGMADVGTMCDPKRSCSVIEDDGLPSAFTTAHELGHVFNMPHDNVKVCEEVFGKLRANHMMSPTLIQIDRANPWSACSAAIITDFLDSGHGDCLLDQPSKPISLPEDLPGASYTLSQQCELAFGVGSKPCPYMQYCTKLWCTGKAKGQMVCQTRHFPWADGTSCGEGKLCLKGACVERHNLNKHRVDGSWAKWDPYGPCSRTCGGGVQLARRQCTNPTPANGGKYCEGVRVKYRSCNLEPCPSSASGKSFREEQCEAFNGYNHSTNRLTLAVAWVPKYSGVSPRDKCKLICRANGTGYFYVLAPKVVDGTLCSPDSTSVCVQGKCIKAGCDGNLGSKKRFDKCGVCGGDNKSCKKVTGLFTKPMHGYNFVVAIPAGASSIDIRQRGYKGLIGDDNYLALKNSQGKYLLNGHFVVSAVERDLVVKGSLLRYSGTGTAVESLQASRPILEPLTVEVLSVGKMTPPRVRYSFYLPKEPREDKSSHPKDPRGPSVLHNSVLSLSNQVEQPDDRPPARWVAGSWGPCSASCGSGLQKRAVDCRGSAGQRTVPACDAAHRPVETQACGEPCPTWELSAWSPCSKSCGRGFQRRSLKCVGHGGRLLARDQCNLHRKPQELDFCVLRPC
Text: as §1

Measured: binding result

B1: Fab of clone 237-53 (Fab, V domains shown)
VH: QVQLVQSGAEVKKPGSSVKVSCKASGGTFSSFAISWVRQAPGQGLEWMGGIFPIFGQANYAQKFQGRVTITADESTSTAYMELSSLRSEDTAVYYCARFSDWWEWQMDYWGQGTLVTVSS
VL: DIVMTQSPDSLAVSLGERATINCRSSQSILYSSNNNYLAWYQQKPGQPPKLLIHTASARESGVPDRFSGSGSGTDFTLTISSLQAEDVAVYYCQQYYSVSITFGQGTKVEIKR
no binding (tested: 5 µg/ml): all assays above
